In publication PMC9151557 one finds Kd data, which are given here for one substance.

For this assay, the target named is recombinant protein fibronectin-collagen peptide (FCP) (human). The assay is described as follows: SPR; OpenSPR (Nicoya); FCP fixed on an NTA sensor chip by capture coupling, integrin β3 injected sequentially; PBS running buffer, 25 °C; binding and dissociation 250 s each; regeneration with hydrochloric acid pH 2.0; one-to-one diffusion-corrected model, TraceDrawer (the discussion says integrin β3 was the captured one). In general terms: SPR reads the build-up and loss of mass on a sensor chip optically.

Usually pKd stands for the negative decadic logarithm of the Kd, by convention in mol/L.

pKd: −log10 of the molar value.

Sequence of integrin β3 (P05106 27-718): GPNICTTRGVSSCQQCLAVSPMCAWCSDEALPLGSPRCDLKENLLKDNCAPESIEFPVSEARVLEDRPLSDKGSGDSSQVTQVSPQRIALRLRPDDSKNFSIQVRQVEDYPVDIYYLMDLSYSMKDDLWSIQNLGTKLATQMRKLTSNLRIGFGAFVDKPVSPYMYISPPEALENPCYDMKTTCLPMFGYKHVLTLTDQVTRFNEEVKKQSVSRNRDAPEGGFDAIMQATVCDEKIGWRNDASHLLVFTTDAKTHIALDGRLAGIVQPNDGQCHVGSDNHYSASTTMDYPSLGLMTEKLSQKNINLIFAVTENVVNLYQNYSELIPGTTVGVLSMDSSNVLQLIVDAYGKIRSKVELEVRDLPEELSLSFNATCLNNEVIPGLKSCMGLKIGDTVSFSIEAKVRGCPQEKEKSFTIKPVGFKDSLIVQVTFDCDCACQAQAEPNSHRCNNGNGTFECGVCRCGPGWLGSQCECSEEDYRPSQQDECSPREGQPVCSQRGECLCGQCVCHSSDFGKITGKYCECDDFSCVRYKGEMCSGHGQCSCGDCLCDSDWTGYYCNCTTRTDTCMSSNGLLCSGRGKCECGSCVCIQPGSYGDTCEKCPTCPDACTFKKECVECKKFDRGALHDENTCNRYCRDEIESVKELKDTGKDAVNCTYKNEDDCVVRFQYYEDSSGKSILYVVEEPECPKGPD

Turning to “integrin β3 (from UniProt P05106 27-718) (receptor)”, the pKd is 7.27.
